Assay [1] has as its target T1, wild-type human PTH/PTHrP receptor (hP1R-WT) (human, UniProt Q03431 27-593).
T1 construct: whole, on cells; HKRK-B28 cells express ~280,000 receptors per cell; also called PTH-1 receptor; PTH-1R
T1 sequence (looked up): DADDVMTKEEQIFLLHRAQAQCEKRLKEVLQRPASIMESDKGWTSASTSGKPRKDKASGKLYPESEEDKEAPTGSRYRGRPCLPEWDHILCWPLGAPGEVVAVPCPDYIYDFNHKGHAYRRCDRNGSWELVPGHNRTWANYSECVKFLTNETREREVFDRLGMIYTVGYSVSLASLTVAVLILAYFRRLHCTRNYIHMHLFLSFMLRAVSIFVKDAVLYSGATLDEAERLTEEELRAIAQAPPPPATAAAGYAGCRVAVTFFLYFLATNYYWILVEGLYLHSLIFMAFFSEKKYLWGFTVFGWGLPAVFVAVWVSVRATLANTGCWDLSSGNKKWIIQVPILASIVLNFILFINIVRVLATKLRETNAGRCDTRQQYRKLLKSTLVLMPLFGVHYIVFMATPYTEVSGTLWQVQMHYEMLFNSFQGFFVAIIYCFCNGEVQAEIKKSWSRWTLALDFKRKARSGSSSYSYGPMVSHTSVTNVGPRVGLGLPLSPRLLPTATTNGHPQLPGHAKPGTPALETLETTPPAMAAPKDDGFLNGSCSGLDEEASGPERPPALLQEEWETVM
The assay can be described thus: competition binding on HKRK-B28 cells. The protocol:
Competition Binding. Binding reactions were performed with HKRK-B28 cells or in COS-7 cells in 24-well plates. The cells were rinsed with 0.5 mL of binding buffer, and then treated successively with 100 μL binding buffer, 100 μL of binding buffer containing various amounts of unlabeled competitor ligand, and 100 μL of binding buffer containing ca. 100,000 cpm of ¹²⁵I-[M]PTH(1-21) or ¹²⁵I-[Aib^{1,3},M]PTH(1-21)} (ca. 26 fmol; final volume=300 μL). Incubations were 4 to 6 h at 4° C., at which time near equilibrium conditions were attained. Cells were then placed on ice, the binding medium was removed, and the monolayer was rinsed three times with 0.5 mL of cold binding buffer. The cells were subsequently lysed with 0.5 mL […] and counted for radioactivity. For each tracer and in each experiment, the non-specific binding was determined as the radioactivity that bound in the presence of the same unlabeled peptide at a concentration of 1 μM, and was ˜1% of total radioactivity added for each tracer. The maximum specific binding (B₀) was the total radioactivity bound in the absence of competing ligand, corrected for nonspecific binding, and for each tracer, ranged from 8% to 20% of the total radioactivity added. Nonlinear regression was used to calculate binding IC₅₀ values (see below). […]

In assay [2] the target is T1, wild-type human PTH/PTHrP receptor …. The assay can be described thus: competition binding, COS-7 cells expressing P1R-WT.
The target in assay [3] is T2, truncated human P1R deleted for residues (24-181) (hP1R-delNt) (human, UniProt Q03431 182-593).
T2 construct: whole, on cells; also called delNT receptor
T2 sequence (looked up): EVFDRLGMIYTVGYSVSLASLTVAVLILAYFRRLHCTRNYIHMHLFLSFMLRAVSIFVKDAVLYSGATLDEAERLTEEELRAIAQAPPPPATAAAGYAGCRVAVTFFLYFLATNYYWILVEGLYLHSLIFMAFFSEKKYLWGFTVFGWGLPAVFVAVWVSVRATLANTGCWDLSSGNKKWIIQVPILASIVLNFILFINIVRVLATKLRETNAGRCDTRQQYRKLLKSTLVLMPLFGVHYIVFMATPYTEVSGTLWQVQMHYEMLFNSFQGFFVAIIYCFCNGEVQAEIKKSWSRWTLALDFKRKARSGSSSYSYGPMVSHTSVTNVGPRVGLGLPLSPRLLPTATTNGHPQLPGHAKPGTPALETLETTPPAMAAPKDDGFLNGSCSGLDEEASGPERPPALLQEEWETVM
The assay can be described thus: Scatchard transformation of homologous competition binding, 125I-[Aib1,3,M]PTH(1-21) tracer, COS-7 cells expressing P1R-delNt. The protocol: (§1) The cells were subsequently lysed with 0.5 mL […] NaOH and counted for radioactivity. For each tracer and in each experiment, the non-specific binding was determined as the radioactivity that bound in the presence of the same unlabeled peptide at a concentration of 1 μM, and was ˜1% of total radioactivity added for each tracer. The maximum specific binding (B₀) was the total radioactivity bound in the absence of competing ligand, corrected for nonspecific binding, and for each tracer, ranged from 8% to 20% of the total radioactivity added. Nonlinear regression was used to calculate binding IC₅₀ values (see below). Scatchard transformations of homologous competition binding data derived from studies with 26 fmol of ¹²⁵I-[Aib^{1,3},M]PTH(1-21) were employed for estimations of apparent equilibrium dissociation constant (kDapps) and total number of ligand binding sites (Bₘₐₓ), assuming a single class of binding sites and equal affinities of the iodinated and non iodinated ligand.
(§2) To potentially improve affinity of this peptide, the paired Aib-1,3 modifications were introduced to produce [Aib^{1,3},M]PTH(1-21). […] The total specific binding observed in COS-7 cells tranfected with vector DNA alone was<2% of total radioactivity added. This radioligand, therefore, enabled competition binding experiments to be performed with both the wild-type and truncated PTH-1 receptors.

Assay [4] concerns the target T1, wild-type human PTH/PTHrP receptor …. The assay can be described thus: Scatchard transformation of homologous competition binding, 125I-[Aib1,3,M]PTH(1-21) tracer, COS-7 cells expressing P1R-WT. On the procedure:
as §1, §2

Square brackets hold non-standard residues; d marks the D form. Ends that are not written are not given here. hArg = N=C(N)NCCCC[C@H](N)C(=O)O; Nle = CCCC[C@H](N)C(=O)O; Aib = CC(C)(N)C(=O)O

The results in this text go back to patent US20050026839A1 (GENERAL HOSPITAL, published 2005).

B1: [Aib^1,3,M]PTH(1-14) (peptide)
peptide: [Aib]V[Aib]EIQLMHQ[hArg]AKW-NH2
modifications: N-terminus assumed
SMILES: CC[C@H](C)[C@H](NC(=O)[C@H](CCC(=O)O)NC(=O)C(C)(C)NC(=O)[C@@H](NC(=O)C(C)(C)N)C(C)C)C(=O)N[C@@H](CCC(N)=O)C(=O)N[C@@H](CC(C)C)C(=O)N[C@@H](CCSC)C(=O)N[C@@H](Cc1c[nH]cn1)C(=O)N[C@@H](CCC(N)=O)C(=O)N[C@@H](CCCCNC(=N)N)C(=O)N[C@@H](C)C(=O)N[C@@H](CCCCN)C(=O)N[C@@H](Cc1c[nH]c2ccccc12)C(N)=O
notes: also called 671 [Aib^1,3, M]PTH (1-14); 671 [Aib^1,3M]PTH(1-14)
On to B1, for which the “fold higher apparent affinity than [M]PTH(1-14)” value in assay [1] is 100 fold. Moreover, the “fold stronger binding affinity than [M]PTH(1-14)” value in assay [2] was approximately 10 fold.

B2: [Aib^1,3,M]PTH(1-21) (peptide)
peptide: [Aib]V[Aib]EIQL[Nle]HQ[hArg]AKWLASVRRY-NH2
modifications: N-terminus assumed
SMILES: CCCC[C@H](NC(=O)[C@H](CC(C)C)NC(=O)[C@H](CCC(N)=O)NC(=O)[C@@H](NC(=O)[C@H](CCC(=O)O)NC(=O)C(C)(C)NC(=O)[C@@H](NC(=O)C(C)(C)N)C(C)C)[C@@H](C)CC)C(=O)N[C@@H](Cc1c[nH]cn1)C(=O)N[C@@H](CCC(N)=O)C(=O)N[C@@H](CCCCNC(=N)N)C(=O)N[C@@H](C)C(=O)N[C@@H](CCCCN)C(=O)N[C@@H](Cc1c[nH]c2ccccc12)C(=O)N[C@@H](CC(C)C)C(=O)N[C@@H](C)C(=O)N[C@@H](CO)C(=O)N[C@H](C(=O)N[C@@H](CCCNC(=N)N)C(=O)N[C@@H](CCCNC(=N)N)C(=O)N[C@@H](Cc1ccc(O)cc1)C(N)=O)C(C)C
notes: unlabeled peptide; also called 674 [Aib^1,3, M]PTH (1-21); 674 [Aib^1,3M]PTH(1-21)
By Kd is commonly meant a measure of binding affinity in units of concentration. Read a low Kd as higher affinity. Regarding B2, the values for the Kd in assay [3] and in assay [4] were 29 nM and 17 nM, respectively.
